The target of this assay is human matrix metalloproteinase-9 (MMP-9) (human) (UniProt P14780). Nature of the assay: cell-based or functional assay.
Sequence of UniProt P14780 (P14780 107-707 Q279R/R574P limits assumed): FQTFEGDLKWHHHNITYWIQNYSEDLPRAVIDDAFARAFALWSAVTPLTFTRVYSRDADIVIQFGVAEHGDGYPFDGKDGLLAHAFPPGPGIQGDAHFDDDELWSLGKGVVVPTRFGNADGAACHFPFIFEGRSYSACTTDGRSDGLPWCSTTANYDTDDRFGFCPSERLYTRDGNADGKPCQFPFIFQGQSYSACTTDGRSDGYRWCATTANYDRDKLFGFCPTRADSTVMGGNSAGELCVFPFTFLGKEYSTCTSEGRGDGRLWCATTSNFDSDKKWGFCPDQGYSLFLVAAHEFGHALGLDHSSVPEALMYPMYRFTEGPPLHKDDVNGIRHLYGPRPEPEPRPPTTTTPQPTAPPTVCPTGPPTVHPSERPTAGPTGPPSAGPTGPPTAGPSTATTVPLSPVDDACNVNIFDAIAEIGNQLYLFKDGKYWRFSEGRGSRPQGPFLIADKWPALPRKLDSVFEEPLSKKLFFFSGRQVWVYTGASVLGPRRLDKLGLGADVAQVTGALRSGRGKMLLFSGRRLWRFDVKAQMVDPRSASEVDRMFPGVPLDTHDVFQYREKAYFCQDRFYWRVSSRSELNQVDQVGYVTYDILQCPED

The substance “anti-human MMP-9 monoclonal antibody (raised in mouse) obtained from Chemicon International (catalog number MAB13415)” gave an FBGC formation from human monocytes induced with IL-4 and GM-CSF (FBGC/high power field) (FBGC/high power field) of 3.7; a fraction of cells fused of 9.8%.

Values taken from US20060002969A1.
